# Target: tau-RD (P301L/V337M)-YFP, stably expressed in HEK293 biosensor cells (UniProt P10636)
# Assay: cell-based or functional assay
# Sequence of tau-RD (P301L/V337M)-YFP, stably expressed in HEK293 biosensor cells (P10636 561-689 P618L/V654M): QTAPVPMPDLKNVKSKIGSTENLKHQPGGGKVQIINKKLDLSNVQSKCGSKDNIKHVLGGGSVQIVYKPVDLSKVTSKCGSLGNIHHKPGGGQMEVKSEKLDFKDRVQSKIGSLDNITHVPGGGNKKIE
substance,measurement,value
"Human tauP301L (0N4R), recombinant, N-terminal His tag (from UniProt P10636 2-758)",aggregate-containing HEK293 biosensor cells (punctate fluorescence after 48 h) on treatment with preformed heparin-induced tauP301L fibrils,38%

# — patent publication US20240116984A1, “MODIFIED PEPTIDES FOR THE INHIBITION OF ABNORMAL TAU ACCUMULATION” (University of Notre Dame du Lac, priority 2021, published 2024)
